Test system: metastatic (Stage IV) squamous or non-squamous NSCLC
Assay: Randomized first-line trial: zimberelimab vs domvanalimab + zimberelimab vs etrumadenant + domvanalimab + zimberelimab; cORR and PFS in ITT and biomarker selected subsets
Format: in vivo, human
Conditions: for Events: PFS events; for HR vs. Low: PFS; for PFS: median
Experimental: The potential treatment benefit of zimberelimab monotherapy vs. domvanalimab plus zimberelimab combination therapy vs. etrumadenant plus domvanalimab plus zimberelimab combination therapy was evaluated in 150 people as a first-line treatment for metastatic (Stage IV) squamous or non-squamous NSCLC. Participants were randomized 1:1:1 across the three study arms and treated until disease progression or loss of clinical benefit. Arm 1 received zimberelimab 360 mg IV Q3W (Arm 1=Z). Arm 2 received domvanalimab 15 mg/kg IV Q3W and zimberelimab 360 mg IV Q3W (Arm 2=DZ). Arm 3 received domvanalimab 15 mg/kg IV Q3W, zimberelimab 360 mg IV Q3W, and etrumadenant 150 mg PO QD (Arm 3=EDZ). Participants in the zimberelimab monotherapy arm (Arm 1) with confirmed progression had the option to cross over to the triplet arm (Arm 3).
EGFR and ALK mutational testing was not required for participants with squamous histology.
The co-primary endpoints for this study were objective response rate (ORR) and progression free survival (PFS). ORR was defined as the percentage of participants with a best overall response (BOR) of either compete response (CR) or partial response (PR). Participants with measurable disease at baseline who discontinued prior to their first scheduled scan were considered non-responders. PFS was defined from the time of randomization until first documentation of disease progression, or death from any cause, whichever occurred first. In addition to the co-primary endpoints, disease control rate (DCR, defined as the percentage of participants with a BOR of CR, PR, or stable disease (SD) for >6 months), duration of response (DoR, defined as the time from first documentation of disease response (CR or PR) until first documentation of confirmed progressive disease) and overall survival (OS, defined as the time from randomization until death due to any cause) were also evaluated as exploratory endpoints. Efficacy analyses were based on the intent-to-treat (ITT) population, which comprises all randomized participants.
As part of an exploratory analysis, clinical outcomes in biomarker selected subsets were investigated retrospectively. Central submission of adequate tumor tissue and central confirmation of PD-L1 status was not required for study enrollment. Thus, the number of biomarker evaluable patients (BEP) varied by biomarker and was less than the ITT population. Expression levels of CD155, CD226, and CD73 were measured in baseline tumor biopsy samples (e.g., formalin-fixed, paraffin-embedded tissue or freshly cut, serial unstained sections), along with baseline expression level of PD-L1. The baseline samples were archival tumor samples obtained ≤24 months prior to screening or fresh biopsy samples obtained prior to the first dose of treatment. PD-L1 expression level in the BEP subset was measured at a central lab using the Ventana SP263 IHC assay, while enrollment in the trial was based on PD-L1 expression ([…] TC or TPS) locally assessed by Ventana SP263 assay or PharmDx 22C3 assay. CD155, CD226 and CD73 expression levels were measured at a central lab as described in Example L. PD-L1, CD155, CD226, and CD73 expression at baseline are summarized in Table 3. The best predictive biomarker of activity in Arm 1 was CD155 (e.g., CD155 low). At least three biomarkers (e.g., PD-L1 high, CD155 high, and CD73 low) enrich for clinical activity of domvanalimab and there was an even greater enhancement in patients that fulfill two of the biomarkers (analyses not shown).
Without rescoring CD155 intensity (i.e., using the original values scored by the pathologist), expression was characterized by two different scoring algorithms—namely, % TC and % TC 2-3+. The coefficient of determination (R^2 value) was used to look at the variance between each approach and CD155 expression characterization by H-scores. While % TC 2-3+ and H-score are highly concordant (R^2 value of 0.94), less concordance was observed between % TC and H-score (R^2 value of 0.71). […]

[1] = CD155 High (2+ or 3+ % TC ≥ 40%)
[2] = CD155 Low (2+ or 3+ % TC < 40%)

B1: zimberelimab (antibody, chains of the INN, looked up, V domains shown)
VH: QLQLQESGPGLVKPSETLTLTCTVSADSISSTTYYWVWIRQPPGKGLEWIGSISYSGSTYYNPSLKSRVTVSVDTSKNQFSLKLNSVAATDTALYYCARHLGYNGRYLPFDYWGQGTLVTVSS
VL: QSALTQPASVSGSPGQSITISCTGTSSDVGFYNYVSWYQQHPGKAPELMIYDVSNRPSGVSDRFSGSKSGNTASLTISGLQAEDEADYYCSSYTSISTWVFGGGTKLTVL
notes: zimberelimab monotherapy 360 mg IV Q3W; anti-PD-1 antibody
In the case of B1, the “Event Rate” value (BEP for CD155, unselected) is reported as 65%, the cORR (BEP for CD155, unselected) is reported as 32% and the cORR (CD73 High: ≥61% TC, BEP) is reported as 42%. For the same molecule, the cORR (CD73 Low: <61% TC, BEP) was 12%, the “Event Rate” value [1] was 82% and the cORR [1] was 18%. The cORR (CD155 High: H-score ≥ 135, BEP) was 24%, the “Event Rate” value [2] was 47% and the cORR [2] was 47%. It also gave a cORR (CD155 Low: H-score < 135, BEP) of 41%, a cORR (CD226 High: ≥4% IC, BEP) of 39% and a cORR (CD226 Low: <4% IC, BEP) of 27%. The “PFS Events (%)” value (ITT population) was “(64%)”, the “PFS Median” value (ITT population) was 5.4 mos and the “PFS Events” value (ITT population, number of events, n = 50 per arm) was 32. For the same molecule, the cORR (ITT population, planned interim analysis) was 30%, the cORR (PD-L1 High: ≥50% TC, BEP) was 33% and the cORR (PD-L1 Low: <50% TC, BEP) was 27%. For the same molecule, the Events (CD73 High: ≥61% TC, BEP) was 68%, the Events (CD73 Low: <61% TC, BEP) was 65% and the Events (CD155 High: H-score ≥ 135, BEP) was 82%. It also gave an Events (CD155 Low: H-score < 135, BEP) of 47%, an Events (CD226 High: ≥4% IC, BEP) of 69% and an Events (CD226 Low: <4% IC, BEP) of 73%. The Events (PD-L1 High: ≥50% TC, BEP) was 67%, the Events (PD-L1 Low: <50% TC, BEP) was 60% and the “HR vs. Low” value (CD73 High (≥61% TC) vs. Low within the arm) was 0.63. The “HR vs. Low” value (CD155 High (H-score ≥ 135) vs. Low within the arm) was 0.38, the “HR vs. Low” value (CD226 High (≥4% IC) vs. Low within the arm) was 0.473 and the “HR vs. Low” value (PD-L1 High (≥50% TC) vs. Low within the arm) was 1.04. It also gave a PFS (BEP for CD155, unselected) of 5.4 mo, a PFS (CD73 High: ≥61% TC, BEP) of 9.6 mo and a PFS (CD73 Low: <61% TC, BEP) of 3.5 mo. For the same molecule, the PFS [1] was 3.5 mo, the PFS (CD155 High: H-score ≥ 135, BEP) was 3.5 mo and the PFS [2] was 9.7 mo. It also gave a PFS (CD155 Low: H-score < 135, BEP) of 9.7 mo, a PFS (CD226 High: ≥4% IC, BEP) of 5.4 mo and a PFS (CD226 Low: <4% IC, BEP) of 2.7 mo. It also gave a PFS (PD-L1 High: ≥50% TC, BEP) of 5.7 mo and a PFS (PD-L1 Low: <50% TC, BEP) of 5.4 mo.

From US20260266828A1, “BIOMARKERS FOR PREDICTING CANCER TREATMENT EFFICACY” (Arcus Biosciences, Inc., priority 2023, published 2026)
